Our source for the target binding fraction values is patent US20250339570A1.

Some results are limits rather than exact numbers.

In this experiment the target is CD46 (UniProt P15529). Description: magnetic bead radioligand binding assay; CD46 on Ni-NTA beads, 10 ng radioimmunoconjugate, bead activity/standard.
Turning to 225Ac-Macropa-PEG0-YS5 (antibody), the target binding fraction is more than 75%.

Substance 225Ac-Macropa-PEG4-YS5 (antibody) displayed a target binding fraction of more than 75%.

225Ac-Macropa-PEG8-YS5 (antibody) gave a target binding fraction of more than 75%.
